Measured values as given in patent US20240166738A1 (priority 2021, published 2024).
Positions count from the first letter of the chain named.

B1: TM-30: anti-TMEM106B monoclonal antibody; CDR-H1-3 SEQ ID NO: 21, 61, 104; CDR-L1-3 SEQ ID NO: 144, 160, 208 (antibody, V domains shown)
VH: QVQLQQSGPELVKPGASVKLSCKASDNTFTNYDVNWVRQRPGQGLEWIGWIYPRDGTTIYNEKFKGRATLTVDTSSSTAYMELHSLTSEDSAVFFCARTLPQAMDYWGQGTSVTVSS
VL: DVLMTQSPLSLPVSLGDQVSISCRSSQTIVHRNGNTYLEWYLQKPGQSPKLLIYKVSNRFSGVPDRFSGSGSGTDFTLKISRVEAEDLGVYYCFQGSHLPWTFGGGTKLEIK
B2: TM-63: anti-TMEM106B monoclonal antibody; VH SEQ ID NO: 469, VL SEQ ID NO: 505 (antibody, V domains shown)
VH: QVQLQQPGAELVKFGASVKLSCKASGYTFTSFWMHWVKQRPGQGLEWIGNIDPSDSETHYSQKFKDKATLTVDRSSNTAYIQLSSLTSEDSAVYYCARSSNWDNFDYWGQGTTVTVSS
VL: DIVMTQASPSVSVTPGESVSISCRSSQSLLHVNGNTYLYWFLQRPGRSPRLLIYRMSNLASGVPDRFSGSGSGTAFTLRISRVEAEDVGVYYCMQHLQYPFSFGSGTKLEMK
modifications: Variable Heavy Chain -- TM-63; Variable Light Chain -- TM-63
B3: TM-64: anti-TMEM106B monoclonal antibody; VH SEQ ID NO: 470, VL SEQ ID NO: 506 (antibody, V domains shown)
VH: QVQLQQPGAELVKPGASVKLSCKASGYTFTSYWMHWVKQRPGHGLEWIGNIDPSDSDTHYNQNFRGKATLTVDKFSTTAYMHLSSLTSEDSAVYYCARSRGGTYDYGEAMDYWGQGTSVTVSS
VL: B2 VL with S8A, S12P, Q27K, V32T, Y39F, R50Q, Q98E, S102T, M111I
modifications: Variable Heavy Chain -- TM-64; Variable Light Chain -- TM-64
B4: TM-80: anti-TMEM106B monoclonal antibody; VH SEQ ID NO: 485, VL SEQ ID NO: 520 (antibody, V domains shown)
VH: B2 VH with F14P, S31T, S61N, K63E, I81M, T113A
VL: B2 VL with S8A, S12P, N35H, R47Q, R50Q, A75V, A85T, V90I, S102T, M111I
modifications: Variable Heavy Chain -- TM-80; Variable Light Chain -- TM-80
B5: TM-78: anti-TMEM106B monoclonal antibody; VH SEQ ID NO: 483, VL SEQ ID NO: 518 (antibody, V domains shown)
VH: QVQLQQPGAELVKPGASVKLSCKASGYTFTNHWMHWVRQRPGQGLEWIGNIDPSDSDTHYNHKFKDKATLIVDKSSSTAYLQLSSLTSEDSAVFYCARSRGGYYDYGEAMDYWGQGTSVTVSS
VL: B2 VL with S8T, V11I, S12P, Q27K, Y39F, R47Q, R50Q, Q98E, S102T, M111I
modifications: Variable Heavy Chain -- TM-78; Variable Light Chain -- TM-78
B6: TM-72: anti-TMEM106B monoclonal antibody; VH SEQ ID NO: 477, VL SEQ ID NO: 512 (antibody, V domains shown)
VH: QVQLQQPGAELVKPGTSVKLSCKASGSTFTNYWMHWVMQRPGQGLEWIGNIDPSDSDTHYNQKFKDRAKLTVDKSSSTAYMQLSGLTSEDSAVYYCARSRGGYYDYGEAMDYWGQGTSVTVSS
VL: DIVMTQAAPSVPVTPGESVSISCRSSKSLLHTNGNTYLFWFIQRPGQSPHLLIYRKSNLASGVPDRFSGSGSGTAFTLRISRVEAEDVGVYYCMQHLEYPFTFGSGTKLEIK
modifications: Variable Heavy Chain -- TM-72; Variable Light Chain -- TM-71, TM-72
B7: TM-29: anti-TMEM106B monoclonal antibody; CDR-H1-3 SEQ ID NO: 20, 60, 103; CDR-L1-3 SEQ ID NO: 143, 168, 207 (antibody, V domains shown)
VH: QVQLRQSGAELVRPGASVKLSCKASGYTFTDYYINWVKQRPGQGLEWIARIYPGSGYTYYNEKFKGKATLTAEGSSNTAYMQLSSLTSEDSAVYFCANHYTNPFAYWGQGTLVTVSA
VL: DIVMTQAAFSNPVTLGTSASISCRSSKSLLHYNGITYLYWYLQKPGQSPQLLIYQMSNLASGVPDRFSSSGSGTDFTLRISRVEAEDVGVYYCAQNLELPYTFGGGTKLEIK

Target: GST-TMEM106B (truncated, comprising amino acids 122-210 of SEQ ID NO:1) (Homo sapiens, UniProt Q9NUM4)
Test: Pre-mix epitope binning of anti-TMEM106B antibodies (Carterra / Lake Pharma)
Format: binding
Parameters: key to epitope bin: Bin 1: competes for binding to the same or overlapping TMEM106B region as the TM1, TM17, TM22, TM26, TM79, and/or TM82 antibodies; Bin 2: competes for binding to the same or overlapping TMEM106B region as the TM3, TM9, TM10, TM11, TM12, TM13, TM18, TM19, TM21, TM24, TM25, TM32, TM35, TM37, TM42, TM45, TM48, TM54, TM59, TM60, TM61, and/or TM76 antibodies; Bin 3: competes for binding to the same or overlapping TMEM106B region as the TM7, TM15, TM83, and/or TM84 antibodies; Bin 4: competes for binding to the same or overlapping TMEM106B region as the TMS, TM28, TM29, TM30, TM63, TM64, TM72, TM78, TM80, TM86, and/or TM88 antibodies; Bin 5: does not bind to a truncated TMEM106B comprising amino acids 122-210 of SEQ ID NO:1
Conditions: for epitope bin: competition for binding to truncated GST-TMEM106B (amino acids 122-210); for Binding Community/Bin: epitope bin number, pre-mix binning on truncated GST-TMEM106B

Sequence of GST-TMEM106B (truncated, comprising amino acids 122-210 of SEQ ID NO:1) (Q9NUM4 122-210): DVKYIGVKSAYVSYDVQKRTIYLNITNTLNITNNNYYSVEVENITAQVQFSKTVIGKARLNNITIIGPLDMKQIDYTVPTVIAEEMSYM

Row | Molecule | epitope bin | Binding Community/Bin
1 | B1 | Bin 4 | 4
2 | B2 | Bin 4 | 4
3 | B3 | Bin 4 | 4
4 | B4 | Bin 4 | 4
5 | B5 | Bin 4 | 4
6 | B6 | Bin 4 | 4
7 | B7 | Bin 4 | 4
